Like-named read-outs stand apart in the source and are kept apart here. Each block holds one binder with its values, some of them ahead of it.
How the values were obtained:
Assay in all cases: BLI
[1] = target: T1, human FcRIIIB protein (MednaBio, E1037) (human, UniProt O75015 17-200)
T1 construct: Bought; also called FcγRIIIB; FcgRIIIB
In short: (§1)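 Binding was measured by biolayer interferometry on an Octet Red96 System, with commercial human Fc receptor proteins loaded at 20 μg/mL onto anti-penta-HIS biosensors. Sensors were dipped into an 8-point 1:3 dilution series of test IgG starting at 300 nM in PBS with 0.1% BSA and 0.02% Tween-20. Fcγ receptor assays ran at pH 7.2 and FcRn assays at pH 6. Kd, kon and koff came from global fitting to a 1:1 binding model.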

[2] = target: T2, human FcRIIIA-F158 protein (MednaBio, E1036) (human, UniProt P08637 17-208)
T2 construct: Bought; also called FcγRIIIA(F)
In short: as §1

[3] = target: T3, human FcRIIA protein (MednaBio, E1033) (human, UniProt P12318 34-218, limits assumed)
T3 construct: Bought; also called FcγRIIA
T3 sequence (looked up): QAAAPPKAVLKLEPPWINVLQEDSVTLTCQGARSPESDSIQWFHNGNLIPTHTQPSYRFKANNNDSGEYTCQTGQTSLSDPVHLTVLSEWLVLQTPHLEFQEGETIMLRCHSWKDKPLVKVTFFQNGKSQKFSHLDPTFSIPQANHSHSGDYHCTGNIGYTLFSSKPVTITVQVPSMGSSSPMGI
In short: as §1

[4] = target: T4, human FcRn protein (MednaBio, E1032) (human, UniProt P55899 24-297; P61769 21-119)
T4 construct: Bought; assays at pH 6
In short: as §1

[5] = target: T5, human FcRI protein (MednaBio, E1031) (human, UniProt P12314 16-288, limits assumed)
T5 construct: Bought; loaded on anti-penta-HIS biosensors; also called FcγRI
In short: as §1

[6] = target: T6, human FcRIIB/C protein (MednaBio, E1034) (human, UniProt P31994 43-217, limits assumed)
T6 construct: Bought as FcRIIB/C; also called FcγRIIB; CD32B
T6 sequence (looked up): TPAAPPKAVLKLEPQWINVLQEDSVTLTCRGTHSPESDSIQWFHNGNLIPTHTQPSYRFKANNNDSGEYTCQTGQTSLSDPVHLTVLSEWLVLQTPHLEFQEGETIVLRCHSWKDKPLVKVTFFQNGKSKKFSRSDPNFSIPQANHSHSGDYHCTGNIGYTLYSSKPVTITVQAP
In short: as §1

[7] = target: T1, human FcRIIIB protein (MednaBio, E1037); remark: listed apart in the source
In short: as §1

[8] = target: T2, human FcRIIIA-F158 protein (MednaBio, …); remark: listed apart in the source
In short: as §1

[9] = target: T1, human FcRIIIB protein (MednaBio, E1037); remark: listed apart in the source
In short: as §1

[10] = target: T2, human FcRIIIA-F158 protein (MednaBio, …); remark: listed apart in the source
In short: as §1

[11] = target: T7, human FcRIIIA-V158 protein (MednaBio, E1035) (human, UniProt P08637 17-208)
T7 construct: Bought; also called FcγRIIIA(V); FcgRIIIA(V)
In short: as §1

[12] = target: T3, human FcRIIA protein (MednaBio, E1033); remark: listed apart in the source
In short: as §1

[13] = target: T4, human FcRn protein (MednaBio, E1032); remark: listed apart in the source
In short: as §1

[14] = target: T5, human FcRI protein (MednaBio, E1031); remark: listed apart in the source
In short: as §1

[15] = target: T6, human FcRIIB/C protein (MednaBio, E1034); remark: listed apart in the source
In short: as §1

T2 sequence (P08637 17-208 limits assumed): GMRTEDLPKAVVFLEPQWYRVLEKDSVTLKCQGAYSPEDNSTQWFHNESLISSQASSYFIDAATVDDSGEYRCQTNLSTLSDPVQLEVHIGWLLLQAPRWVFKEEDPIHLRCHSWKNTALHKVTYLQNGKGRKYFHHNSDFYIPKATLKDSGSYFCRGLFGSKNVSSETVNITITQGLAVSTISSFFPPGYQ
T7 sequence (P08637 17-208 F176V): as the sequence (P08637 17-208 limits assumed) above, with F160V counted along it
T1 sequence (O75015 17-200 limits assumed): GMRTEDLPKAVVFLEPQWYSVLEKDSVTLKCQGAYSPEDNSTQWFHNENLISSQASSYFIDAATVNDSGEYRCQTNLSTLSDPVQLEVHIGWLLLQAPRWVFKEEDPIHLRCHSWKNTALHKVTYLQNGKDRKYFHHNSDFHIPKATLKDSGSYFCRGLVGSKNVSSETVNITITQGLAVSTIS
T5 sequence (P12314 16-288 limits assumed): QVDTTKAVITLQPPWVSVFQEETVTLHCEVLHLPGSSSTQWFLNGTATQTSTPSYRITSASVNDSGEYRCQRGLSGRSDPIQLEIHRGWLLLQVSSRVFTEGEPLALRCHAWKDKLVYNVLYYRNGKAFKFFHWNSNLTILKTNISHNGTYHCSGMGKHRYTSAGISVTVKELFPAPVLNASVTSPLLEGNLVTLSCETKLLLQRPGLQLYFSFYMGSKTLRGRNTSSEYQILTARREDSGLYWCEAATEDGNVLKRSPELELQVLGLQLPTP

Kd [1]: 130 nM | koff [1]: 0.027 s⁻¹ | kon [1]: 210000 M⁻¹ s⁻¹ | Kd [2]: 120 nM | koff [2]: 0.02 s⁻¹ | kon [2]: 170000 M⁻¹ s⁻¹ | Kd [3]: 56 nM | koff [3]: 0.032 s⁻¹ | kon [3]: 570000 M⁻¹ s⁻¹ | Kd [4]: 16 nM | koff [4]: 0.008 s⁻¹ | kon [4]: 480000 M⁻¹ s⁻¹ | Kd [5]: 5.6 nM | koff [5]: 0.0012 s⁻¹ | kon [5]: 220000 M⁻¹ s⁻¹ | Kd [6]: 130 nM | koff [6]: 0.016 s⁻¹ | kon [6]: 120000 M⁻¹ s⁻¹ | Kd [7]: 130 nM | koff [7]: 0.027 s⁻¹ | kon [7]: 210000 M⁻¹ s⁻¹ | Kd [8]: 120 nM | koff [8]: 0.02 s⁻¹ | kon [8]: 170000 M⁻¹ s⁻¹ | Kd [9]: 130 nM | koff [9]: 0.027 s⁻¹ | kon [9]: 210000 M⁻¹ s⁻¹ | Kd [10]: 120 nM | koff [10]: 0.02 s⁻¹ | kon [10]: 170000 M⁻¹ s⁻¹
B1: wild-type human IgG1 control (antibody)
heavy: not shown
light: SYELTQPPSVSVSPGQTASITCSGDNIGDQYAHWYQQKPGQSPVLVIYQDKNRPSGIPERFSGSNSGNTATLTISGTQAMDEADYYCATYTGFGSLAVFGGGTKLTVLGQPKAAPSVTLFPPSSEELQANKATLVCLISDFYPGAVTVAWKADSSPVKAGVETTTPSKQSNNKYAASSYLSLTPEQWKSHRSYSCQVTHEGSTVEKTVAPTECS
notes: Control IgG

Kd [11]: 550 nM | koff [11]: 0.092 s⁻¹ | kon [11]: 170000 M⁻¹ s⁻¹ | Kd [12]: 400 nM | koff [12]: 0.055 s⁻¹ | kon [12]: 140000 M⁻¹ s⁻¹ | Kd [13]: 18 nM | koff [13]: 0.012 s⁻¹ | kon [13]: 640000 M⁻¹ s⁻¹ | Kd [14]: 4.8 nM | koff [14]: 0.0017 s⁻¹ | kon [14]: 360000 M⁻¹ s⁻¹ | Kd [15]: 400 nM | koff [15]: 0.05 s⁻¹ | kon [15]: 140000 M⁻¹ s⁻¹
B2: wild-type human IgG4 control (antibody)
heavy: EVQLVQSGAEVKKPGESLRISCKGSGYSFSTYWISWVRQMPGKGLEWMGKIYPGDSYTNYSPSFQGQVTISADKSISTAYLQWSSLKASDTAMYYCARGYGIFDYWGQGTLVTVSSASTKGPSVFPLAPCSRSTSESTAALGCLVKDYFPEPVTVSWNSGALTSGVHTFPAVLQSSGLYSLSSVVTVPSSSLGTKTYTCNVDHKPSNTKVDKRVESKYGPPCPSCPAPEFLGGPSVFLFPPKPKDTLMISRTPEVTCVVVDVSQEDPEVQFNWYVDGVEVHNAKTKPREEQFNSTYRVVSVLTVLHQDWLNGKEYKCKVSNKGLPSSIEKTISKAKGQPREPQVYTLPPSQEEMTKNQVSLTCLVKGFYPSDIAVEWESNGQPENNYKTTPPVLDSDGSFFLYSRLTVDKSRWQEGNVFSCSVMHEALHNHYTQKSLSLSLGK
light: B1 light
notes: Control IgG

Source: patent US20200392227A1 (LYVGEN BIOPHARMA, published 2020)
